Read-outs that look alike come from different tables or passages of the source.
Columns and labels:
[1] = target: T1, human nerve growth factor (beta-NGF) (human, UniProt P01138 122-241); experiment: inhibition of human 125I-NGF binding to coated p75 fusion protein
Procedure: (§1) Human TrkA and p75 receptor fusion proteins (R&D Systems) were diluted in Dulbecco's PBS (Gibco) to final concentrations of 10 nM and 0.6 nM, respectively. Maxisorp Nunc white 96 well microtitre plates (Nalge Nunc) were coated overnight at 4° C. with 100 μl/well of the diluted TrkA or p75 receptor solution. Plates were washed 3 times with PBS Tween 20, and then blocked with 200 μl/well 3% w/v bovine serum albumin (BSA) in PBS. Plates were washed after 1 h incubation at room temperature. Test antibodies were diluted to the desired concentration in assay buffer (0.5% w/v BSA and 0.05% v/v Tween 20 in PBS). […] Duplicate wells were prepared for each concentration of test sample. […] Bound radiolabel was quantified by addition of 100 μl/well Microscint 20 (Perkin Elmer) followed by counting using a Packard TopCount microplate liquid scintillation counter. Data were plotted and analysed using Graphpad Prism software to calculate IC₅₀ values for each experiment, and to derive the corresponding Ki according to the Cheng-Prusoff equation; Ki=IC₅₀/(1+D/Kd) Where: [0257]

[2] = target: T2, rat nerve growth factor (beta-NGF) (rat, UniProt P25427 122-241); experiment: inhibition of rat 125I-NGF binding to coated p75 fusion protein
Procedure: as §1

[3] = target: T1, human nerve growth factor (beta-NGF); experiment: inhibition of human 125I-NGF binding to coated TrkA fusion protein
Procedure: as §1

[4] = target: T2, rat nerve growth factor (beta-NGF); experiment: inhibition of rat 125I-NGF binding to coated TrkA fusion protein
Procedure: as §1

[5] = target: mouse nerve growth factor (mouse, UniProt P01139 122-241); experiment: cell-based or functional assay
[6] = target: T2, rat nerve growth factor (beta-NGF); experiment: cell-based or functional assay
[7] = target: T1, human nerve growth factor (beta-NGF); experiment: cell-based or functional assay
[8] = target: T2, rat nerve growth factor (beta-NGF); experiment: cell-based or functional assay; remark: listed apart in the source
[9] = target: T1, human nerve growth factor (beta-NGF); experiment: cell-based or functional assay; remark: listed apart in the source
[10] = target: T2, rat nerve growth factor (beta-NGF); experiment: cell-based or functional assay; remark: listed apart in the source
[11] = target: T1, human nerve growth factor (beta-NGF); experiment: cell-based or functional assay; remark: listed apart in the source
[12] = target: T1, human nerve growth factor (beta-NGF); experiment: inhibition of human 125I-NGF binding to coated TrkA fusion protein, Cheng-Prusoff, n=3
Procedure: (§2) Competition binding experiments were designed in order to calculate binding inhibition constant (Ki) values. […] Ki values were then derived using the Cheng-Prusoff equation.
as §1

[13] = target: T2, rat nerve growth factor (beta-NGF); experiment: inhibition of rat 125I-NGF binding to coated p75 fusion protein, Cheng-Prusoff, n=3
Procedure: as §2, §1

[14] = target: T1, human nerve growth factor (beta-NGF); experiment: human 125I-NGF saturation binding to captured IgG4, one-site model
Procedure: (§3) Briefly, flashplates (Perkin Elmer SMP200) were coated with 100 μl/well of 2.2 μg/ml goat anti-human IgG (Sigma-Aldrich, UK) in phosphate buffered saline (PBS) for 1 h. Wells were washed with PBS and then blocked for 1 h with 200 μl/well PBS containing 3% w/v bovine serum albumin (BSA; Sigma-Aldrich, UK). […] Following incubation for 1 h plates were washed with PBS.
(§4) Plates were incubated overnight, and wells counted for 1 min on a gamma counter (TopCount NXT, Perkin Elmer). Specific binding was calculated according to the formula ‘specific binding=total binding−non-specific binding’. Binding curves were plotted and binding parameters determined according to a one-site saturation binding model using Prism software (GraphPad Software Inc., USA).

[15] = target: T2, rat nerve growth factor (beta-NGF); experiment: rat 125I-NGF saturation binding to captured IgG4, one-site model
Procedure: as §3, §4

[16] = target: T2, rat nerve growth factor (beta-NGF); experiment: inhibition of rat 125I-NGF binding to coated TrkA fusion protein, Cheng-Prusoff, n=3
Procedure: as §2, §1

[17] = target: T1, human nerve growth factor (beta-NGF); experiment: inhibition of human 125I-NGF binding to coated p75 fusion protein, Cheng-Prusoff, n=3
Procedure: as §2, §1

T2 sequence (P25427 122-241): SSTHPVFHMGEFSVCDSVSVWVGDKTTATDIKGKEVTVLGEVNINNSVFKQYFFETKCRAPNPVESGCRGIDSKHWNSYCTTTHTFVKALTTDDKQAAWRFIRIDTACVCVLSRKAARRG
T1 sequence (P01138 122-241): as the sequence (P25427 122-241) above, with T3S, V6I, M9R, T37M, A60D, E65D, T92M, D94G, A117V, G120A counted along it
Chain of mouse nerve growth factor (P01139 122-241): as the sequence (P25427 122-241) above, with G40A, K50R, P61S, D94E, A117T counted along it

Molecule: mouse anti-mouse NGF MAB5260Z (Chemicon) (antibody)
- IC50 [1]: 0.57 nM
- Ki [1]: 0.472 nM
- IC50 [2]: 0.587 nM
- Ki [2]: 0.532 nM
- IC50 [3]: 0.368 nM
- Ki [3]: 0.333 nM
- IC50 [4]: 0.31 nM
- Ki [4]: 0.288 nM

Molecule: mouse anti-human NGF MAB256 (R&D Systems) (antibody)
- IC50 [1]: 0.304 nM
- Ki [1]: 0.252 nM
- IC50 [2]: 2.94 nM
- Ki [2]: 2.67 nM
- IC50 [3]: 1.94 nM
- Ki [3]: 1.76 nM
- IC50, FLIPR calcium mobilisation [5]: 1.4 nM
- IC50, TF-1 cell proliferation [5]: 7 nM
- IC50 [4]: 1.48 nM
- Ki [4]: 1.38 nM
- IC50, FLIPR calcium mobilisation [6]: 0.79 nM
- IC50, PC12 cell survival [6]: 44 nM
- IC50, TF-1 cell proliferation [6]: 5 nM
- IC50, calcium mobilisation assay [6]: 0.79 nM
- IC50, FLIPR calcium mobilisation [7]: 0.76 nM
- IC50, PC12 cell survival [7]: 23 nM
- IC50, TF-1 cell proliferation [7]: 6 nM
- IC50, calcium mobilisation assay [7]: 0.76 nM

B1: 1021E5 human IgG4 (antibody, V domains shown)
VH: EVQLVQSGAEVKKPGSSVKVSCKASGGTFSTYGISWVRQAPGQGLEWIGGIIPIFDTGNSAQSFQGRVTITADESTSTAYMEVSSLRSDDTAVYYCASSSRIYDYAGGDHYYYDMDVWGQGTMVTVSS
VL: QAVLTQPSSVSTPPGQKVTISCSGSSSNIGNNYVSWYQQLPGTAPKLLIYDNNKRPSGIPDRFSGSKSGTSATLGITGLQTGDEADYYCGTWDSSLSAWVFGGGTKLTVL
- IC50, calcium mobilisation assay [8]: 75 nM
- IC50, calcium mobilisation assay [9]: 76 nM
- IC50, FLIPR calcium mobilisation [10]: 75 nM
- IC50, FLIPR calcium mobilisation [5]: 47 nM
- IC50, FLIPR calcium mobilisation [11]: 76 nM
- IC50, PC12 cell survival [11]: ~1300 nM

B2: 1252A5 IgG4 (antibody, V domains shown)
VH: QVQLVQSGAEVKKPGSSVKVSCKASGGTFSTYGISWVRQAPGQGLEWMGGIIPIFDTGNSAQSFQGRVTITADESTSTAYMELSSLRSEDTAVYYCARSSRIYDLNPSLTAYYDMDVWGQGTMVTVSS
VL: QSVLTQPPSVSAAPGQKVTISCSGSSSNIGNNYVSWYQQLPGTAPKLLIYDNNKRPSGIPDRFSGSKSGTSATLGITGLQTGDEADYYCGTWDSSLSAWVFGGGTKLTVL
notes: tested as whole human IgG4; also called germlined 1133C11
- IC50 [1]: 0.188 nM
- Ki [1]: 0.155 nM
- IC50 [2]: 0.302 nM
- Ki [2]: 0.274 nM
- pKi [12]: 10.3
- pKi [13]: 9.55
- IC50 [3]: 0.068 nM
- Ki [3]: 0.061 nM
- Kd [14]: 0.35 nM
- IC50, FLIPR calcium mobilisation [10]: 0.29 nM
- IC50, PC12 cell survival [10]: 2.7 nM
- IC50, TF-1 cell proliferation [10]: 0.72 nM
- IC50, FLIPR calcium mobilisation [5]: 0.26 nM
- IC50, TF-1 cell proliferation [5]: 0.55 nM
- IC50, FLIPR calcium mobilisation [11]: 0.33 nM
- IC50, PC12 cell survival [11]: 0.94 nM
- IC50, TF-1 cell proliferation [11]: 0.42 nM
- Kd [15]: 0.44 nM
- IC50 [4]: 0.151 nM
- Ki [4]: 0.14 nM
- pKi [16]: 9.79
- pKi [17]: 9.85

B3: G1152H5 human IgG4 (antibody, V domains shown)
VH: QVQLVQSGAEVKKPGSSVKVSCKASGGTFSTYGISWVRQAPGQGLEWMGGIIPIFDTGNSAQSFQGRVTITADESTSTAYMELSSLRSEDTAVYYCARSSRIYDMISSLQPYYDMDVWGQGTMVTVSS
VL: QSVLTQPPSVSAAPGQKVTISCSGSSSNIGNNYVSWYQQLPGTAPKLLIYDNNKRPSGIPDRFSGSKSGTSATLGITGLQTGDEADYYCGTWDSSLSAWVFGGGTKLTVL
notes: tested as whole human IgG4; also called germlined 1152H5
- IC50 [1]: 0.348 nM
- Ki [1]: 0.288 nM
- IC50 [2]: 0.781 nM
- Ki [2]: 0.708 nM
- pKi [12]: 9.59
- pKi [13]: 9.24
- IC50 [3]: 0.204 nM
- Ki [3]: 0.184 nM
- Kd [14]: 0.37 nM
- IC50, FLIPR calcium mobilisation [10]: 0.27 nM
- IC50, PC12 cell survival [10]: 7.3 nM
- IC50, TF-1 cell proliferation [10]: 1.44 nM
- IC50, FLIPR calcium mobilisation [5]: 0.18 nM
- IC50, TF-1 cell proliferation [5]: 0.99 nM
- IC50, FLIPR calcium mobilisation [11]: 0.22 nM
- IC50, PC12 cell survival [11]: 1.1 nM
- IC50, TF-1 cell proliferation [11]: 0.44 nM
- Kd [15]: 0.5 nM
- IC50 [4]: 0.538 nM
- Ki [4]: 0.499 nM
- pKi [16]: 9.18
- pKi [17]: 9.56

B4: 1033G9 human IgG4 (antibody, V domains shown)
VH: EVQLVQSGAEVRKPGSSVKVSCKASGDTSTLYSINWVRQVPGQGLEWMGAIIPIFGLTDYAQEFQGRLTITADESTNTAYMELTGLRSEDTAIYYCARNLFTTLSYWYFDLWGQGTLVTVSS
VL: SSELTQDPAVSVALGQTVRITCQGDRLRSYYASWYQQKPGQAPVLVIYGKNNRPSGIPDRFSGSSSGNTASLTITGAQAEDEADYYCNSRDSSGNHVVFGGGTLLTVL
- IC50, calcium mobilisation assay [8]: 26 nM
- IC50, calcium mobilisation assay [9]: 55 nM

B5: 1016A8 human IgG4 (antibody, V domains shown)
VH: EVQLVQSGAELKKPGASVKVSCKASGYPFTSYYMHWVRQAPGQGLEWMGLVDPEDGETIYAEKFQGRVTITADTSTDTAYMELSSLRSEDTAVYSCATSSHNYGTASYYHYGMDVWGRGTMVTVSS
VL: QSVLTQPPSASGTPGQRVTISCSGSSSNIGSNTVNWYQRLPGAAPQLLIYNNDQRPSGIPDRFSGSKSGTSGSLVISGLQSEDEADYYCASWDDSLNGRVFGGGTKLTVL
- IC50, calcium mobilisation assay [8]: 14 nM
- IC50, calcium mobilisation assay [9]: 65 nM

B6: 1024C4 human IgG4 (antibody, V domains shown)
VH: QVQLQESGGGVVQPGRSLRLSCAASGFAFKKYGLHWVRQAPGKGLEWVGVTSYDGSKNYYADSVKGRFTISRDNSKNTLYLQVNSLRPEDTAVYYCAKDGEVGDLHLVPFRQDSGLDVWGRGTLVTVSS
VL: QSVLTQPPSVSVSPGQTASITCSGDNLGDKYVHWYQQKPGQSPVLVTYQDTKRPSGIPERFSGSNSGNTATLTISGTQAMDEAGYYCQAWDSSTVVFGGGTKLTVL
- IC50, calcium mobilisation assay [8]: ~565 nM
- IC50, calcium mobilisation assay [9]: ~410 nM

B7: 1083H4 human IgG4 (antibody, V domains shown)
VH: QMQLVQSGAEVKKTGSSVKVSCKASGYTFAYHYLHWVRQAPGQGLEWMGGIIPIFGTTNYAQRFQDRVTITADESTSTAYMELSSLRSEDTAVYYCASADYVWGSYRPDWYFDLWGRGTMVTVSS
VL: QSVLTQPPSASGTPGQRVTISCSGSSSNIGSNTVNWYQRLPGAAPQLLIYNNDQRPSGIPDRFSGSKSGTSGSLVISGLQSEDEADYYCASWDDSLNGRVFGGGTKLTVL
- IC50, calcium mobilisation assay [8]: 61 nM
- IC50, calcium mobilisation assay [9]: 30 nM
- IC50, FLIPR calcium mobilisation [10]: 61 nM
- IC50, FLIPR calcium mobilisation [5]: 54 nM
- IC50, FLIPR calcium mobilisation [11]: 30 nM
- IC50, PC12 cell survival [11]: ~1100 nM

B8: 1064F8 human IgG4 (antibody, V domains shown)
VH: EVQLVQSGAEVKKPGSSVKVSCKASGGTFSSYAYTWVRQAPGQGLEWMGGIVPIFGSTNYAQKFQGRLTITADEFTSTAHMELSSLTSADTAVYYCAGGSDLYCSGGNCYGGGHYYYYMDVWGQGTTVTVSS
VL: SSELTQDPAVSVALGQTVRITCTGTSSDVGGYNYVSWYQQHPGKAPKLMIYEGSKRPSGVSNRFSGSKSGNTASLTISGLQAEDEADYYCSSYTTRSTRVFGGGTKLTVL
- IC50, calcium mobilisation assay [8]: 5.5 nM
- IC50, calcium mobilisation assay [9]: 2.5 nM

B9: 1022E3 human IgG4 (antibody, V domains shown)
VH: QVQLVQSGAEVKKPGASVKVSCKASGYSFINYSMHWVRQAPGQGLEWIGIINPGGDSTKYTQRFQDRVTMTWDTSTSTVYMDLSSLRSEDTAIYYCARGLHPIPMMLATINPIFAYWGQGTLVTVSS
VL: SSELTQDPAVSVALGQTVRITCRGDSLRNYYANWYQQKPGQAPVLVIYDENKRPSGIPDRFSGSGSGNTASLTITGAQAEDEADYFCNSRDTFGYVRDVLFGGGTKVTVL
- IC50, calcium mobilisation assay [8]: 14 nM
- IC50, calcium mobilisation assay [9]: 18 nM

Reference: patent US20080107658A1 (AstraZeneca / MedImmune, published 2008)
